Patent US20110263454A1, “Methods of Identifying Functional Characteristics of Promoters, Transcription Modifying Proteins and Transcription Modulating Agents” (Salk Institute for Biological Studies, priority 2008, published 2011)

Columns and labels:
mAdiponectin promoter = experiment: NHR-promoter luciferase screen, mAdiponectin promoter; assay type: cell-based, mouse; details: for Luc. act., normalized to lacZ / Normalized Luc. act., normalized to control: Adiponectin, HR component without or with its ligand; for mAdiponectin promoter reporter activity: transcription factor +/- ligand, control = 1.00
Method: (§1) The use, feasibility, and reproducibility of the functional NHR-promoter screen in a 48-well format have been tested validated. Briefly, there were co-expressed 50 ng of each NHR/NHR homodimer or NHR/RXR heterodimer with 100 ng promoter/luciferase construct and 50 ng of LacZ (as a control for transfection efficiency) in CV-1 cells using Fugene HD (Roche) as a transfection reagent (alternatively or additionally, a CMV-YFP construct can be used as a transfection control). Each of the nuclear hormone receptors that were used in these experiments was cloned into a pcDNA3.1 vector and comprised a C-terminally linked V5H6 tag. Twenty-four hours after transfection, appropriate ligands were added, where applicable, (see Table 5 for various ligands and concentrations and after 48 hrs, samples were assayed for luciferase and LacZ activity. To measure for luciferase activity 15 ul of sample was added to 30 ul of luciferase buffer (20 mM tricine, 1.07 mM MgCarbonate, 2.67 mM MgSulfate, 0.1 mM Naz-EDTA, 5 mM DTT, 5 mM ATP, 0.15 mg/ml CoA, 0.5 mM Luciferin), mixed briefly, and run in a Perkin Elmer Victor 5 luminometer. Thus, the functional NHR-promoter screen was used to observe the transcriptional activity of 29 promoters from various physiological pathways including inflammation, lipid and sugar metabolism, cholesterol transport, xenobiotic metabolism, and circadian rhythm.
(§2) The promoters that facilitate transcription of the indicated gene products that were tested using the protocols described herein are listed in the first row of the table. The nuclear hormone receptors and, where applicable, ligands that were assayed for their transcriptional effects on the promoters are listed in the first column of the table. The data represent the luciferase activity of each sample normalized to both the lacZ activity of that sample and to a control, e.g., no NHR or ligand, as customary in the art. As described previously, these normalizations allow the transcriptional activity of each reporter cell to be compared to other samples.
(§3) Tables 7-40 show the transcriptional effects of the hormone receptors, and, where applicable, ligands (orphan receptors are screened without ligand), on each individual promoter. […] The control data of each table are shown in their last rows.

hPPARg2 promoter = experiment: NHR-promoter luciferase screen, hPPARg2 promoter; assay type: cell-based, human; details: for Luc. act., normalized to lacZ / Normalized Luc. act., normalized to control: PPARG2 promoter, hormone receptor with or without its ligand; for Normalized Luc. act., normalized to control: relative to control; for Results of assays of transcription factor (+/- ligand) with hPPARg2: Table 6d, luciferase activity relative to control (control = 1.00)
Method: as §1, §2, §3

hG6PD promoter = experiment: NHR-promoter luciferase screen, hG6PD promoter; assay type: cell-based, human; details: for Luc. act., normalized to lacZ / Normalized Luc. act., normalized to control: G6PD promoter reporter, co-transfected HR, without or with its ligand; for Normalized Luc. act., normalized to control: relative to control; for luciferase activity normalized to lacZ activity and to a control, hG6PD: hG6PD promoter-luciferase, CV-1 cells, NHR +/- ligand, control = 1.00
Method: as §1, §2, §3

mPgc1b promoter = experiment: NHR-promoter luciferase screen, mPgc1b promoter; assay type: cell-based, mouse; details: for Luc. act., normalized to lacZ / Normalized Luc. act., normalized to control: PGC1b promoter reporter, co-transfected HR, without or with its ligand; for Normalized Luc. act., normalized to control: relative to control; for luciferase activity normalized to lacZ activity and to a control, mPgc1b: mPgc1b promoter-luciferase, CV-1 cells, NHR +/- ligand, control = 1.00
Method: Briefly, there were co-expressed 50 ng of each NHR/NHR homodimer or NHR/RXR heterodimer with 100 ng promoter/luciferase construct and 50 ng of LacZ (as a control for transfection efficiency) in CV-1 cells using Fugene HD (Roche) as a transfection reagent (alternatively or additionally, a CMV-YFP construct can be used as a transfection control). Each of the nuclear hormone receptors that were used in these experiments was cloned into a pcDNA3.1 vector and comprised a C-terminally linked V5H6 tag.
as §2, §3

hPPARg1 promoter = experiment: NHR-promoter luciferase screen, hPPARg1 promoter; assay type: cell-based, human; details: for Luc. act., normalized to lacZ / Normalized Luc. act., normalized to control: PPARG1 promoter, hormone receptor with or without its ligand; for Normalized Luc. act., normalized to control: relative to control; for Results of assays of transcription factor (+/- ligand) with hPPARg1: Table 6d, luciferase activity relative to control (control = 1.00)
Method: as §1, §2, §3

hIRF7 promoter = experiment: NHR-promoter luciferase screen, hIRF7 promoter; assay type: cell-based, human; details: for Normalized Luc. act., normalized to control / Luc. act., normalized to lacZ: IRF7 promoter reporter; for Normalized Luc. act., normalized to control: HR without or with its ligand, relative to control; for Luc. act., normalized to lacZ: hormone receptor (HR) without or with its ligand; for hIRF7 promoter reporter activity: transcription factor +/- ligand, control = 1.00
Method: as §1, §2, §3

Row | Molecule | Luc. act., normalized to lacZ (mAdiponectin promoter) | Normalized Luc. act., normalized to control (mAdiponectin promoter) | mAdiponectin promoter reporter activity (mAdiponectin promoter) | Luc. act., normalized to lacZ (hPPARg2 promoter) | Normalized Luc. act., normalized to control (hPPARg2 promoter) | Results of assays of transcription factor (+/- ligand) with hPPARg2 (hPPARg2 promoter) | Luc. act., normalized to lacZ (hG6PD promoter) | Normalized Luc. act., normalized to control (hG6PD promoter) | luciferase activity normalized to lacZ activity and to a control, hG6PD (hG6PD promoter) | Luc. act., normalized to lacZ (mPgc1b promoter) | Normalized Luc. act., normalized to control (mPgc1b promoter) | luciferase activity normalized to lacZ activity and to a control, mPgc1b (mPgc1b promoter) | Luc. act., normalized to lacZ (hPPARg1 promoter) | Normalized Luc. act., normalized to control (hPPARg1 promoter) | Results of assays of transcription factor (+/- ligand) with hPPARg1 (hPPARg1 promoter) | Normalized Luc. act., normalized to control (hIRF7 promoter) | Luc. act., normalized to lacZ (hIRF7 promoter) | hIRF7 promoter reporter activity (hIRF7 promoter)
1 | PPARa: Peroxisome proliferator activated receptor α (NR1C1), cDNA driver | 40.4 | 0.6 | 0.64 | 2.4 | 1.2 | 1.20 | 55.6 | 1.5 | 1.49 | 9.33 | 0.8 | 0.79 | 57.6 | 0.8 | 0.84 | 1.4 | 36.6 | 1.39
2 | ERR1: Estrogen Related Receptor α (NR3B1, ERRa), cDNA driver | 49.2 | 0.8 | 0.78 | 1.7 | 0.8 | 0.84 | 59.1 | 1.6 | 1.58 | 8.8 | 0.7 | 0.75 | 59.1 | 0.9 | 0.86 | 1.2 | 31.3 | 1.19
3 | LXRb: Liver X Receptor β (NR1H2), cDNA driver (protein, UniProt P55055 1-460, looked up) Oxysterols receptor LXR-beta: MSSPTTSSLDTPLPGNGPPQPGAPSSSPTVKEEGPEPWPGGPDPDVPGTDEASSACSTDWVIPDPEEEPERKRKKGPAPKMLGHELCRVCGDKASGFHYNVLSCEGCKGFFRRSVVRGGARRYACRGGGTCQMDAFMRRKCQQCRLRKCKEAGMREQCVLSEEQIRKKKIRKQQQESQSQSQSPVGPQGSSSSASGPGASPGGSEAGSQGSGEGEGVQLTAAQELMIQQLVAAQLQCNKRSFSDQPKVTPWPLGADPQSRDARQQRFAHFTELAIISVQEIVDFAKQVPGFLQLGREDQIALLKASTIEIMLLETARRYNHETECITFLKDFTYSKDDFHRAGLQVEFINPIFEFSRAMRRLGLDDAEYALLIAINIFSADRPNVQEPGRVEALQQPYVEALLSYTRIKRPQDQLRFPRMLMKLVSLRTLSSVHSEQVFALRLQDKKLPPLLSEIWDVHE | 61.7 | 1.0 | 0.98 | 2.4 | 1.2 | 1.19 | 46.8 | 1.3 | 1.25 | 4.69 | 0.4 | 0.40 | 37.9 | 0.5 | 0.55 | 1.7 | 45.1 | 1.71
4 | HNF4a: Hepatocyte Nuclear Factor α (NR2A1), cDNA driver (protein, UniProt P41235 1-474, looked up) Hepatocyte nuclear factor …: MRLSKTLVDMDMADYSAALDPAYTTLEFENVQVLTMGNDTSPSEGTNLNAPNSLGVSALCAICGDRATGKHYGASSCDGCKGFFRRSVRKNHMYSCRFSRQCVVDKDKRNQCRYCRLKKCFRAGMKKEAVQNERDRISTRRSSYEDSSLPSINALLQAEVLSRQITSPVSGINGDIRAKKIASIADVCESMKEQLLVLVEWAKYIPAFCELPLDDQVALLRAHAGEHLLLGATKRSMVFKDVLLLGNDYIVPRHCPELAEMSRVSIRILDELVLPFQELQIDDNEYAYLKAIIFFDPDAKGLSDPGKIKRLRSQVQVSLEDYINDRQYDSRGRFGELLLLLPTLQSITWQMIEQIQFIKLFGMAKIDNLLQEMLLGGSPSDAPHAHHPLHPHLMQEHMGTNVIVANTMPTHLSNGQMCEWPRPRGQAATPETPQPSPPGGSGSEPYKLLPGAVATIVKPLSAIPQPTITKQEVI | 25.4 | 0.4 | 0.40 | 2.0 | 1.0 | 1.02 | 34.8 | 0.9 | 0.93 | 6.4 | 0.5 | 0.54 | 34.8 | 0.5 | 0.51 | 1.4 | 36.0 | 1.36
5 | RORa: RAR-related Orphan Receptor α (NR1F1), cDNA driver (protein, UniProt P35398 1-523, looked up) Nuclear receptor ROR-alpha: MESAPAAPDPAASEPGSSGADAAAGSRETPLNQESARKSEPPAPVRRQSYSSTSRGISVTKKTHTSQIEIIPCKICGDKSSGIHYGVITCEGCKGFFRRSQQSNATYSCPRQKNCLIDRTSRNRCQHCRLQKCLAVGMSRDAVKFGRMSKKQRDSLYAEVQKHRMQQQQRDHQQQPGEAEPLTPTYNISANGLTELHDDLSNYIDGHTPEGSKADSAVSSFYLDIQPSPDQSGLDINGIKPEPICDYTPASGFFPYCSFTNGETSPTVSMAELEHLAQNISKSHLETCQYLREELQQITWQTFLQEEIENYQNKQREVMWQLCAIKITEAIQYVVEFAKRIDGFMELCQNDQIVLLKAGSLEVVFIRMCRAFDSQNNTVYFDGKYASPDVFKSLGCEDFISFVFEFGKSLCSMHLTEDEIALFSAFVLMSADRSWLQEKVKIEKLQQKIQLALQHVLQKNHREDGILTKLICKVSTLRALCGRHTEKLMAFKAIYPDIVRLHFPPLYKELFTSEFEPAMQIDG | 80.0 | 1.3 | 1.27 | 8.4 | 4.2 | 4.19 | 74.0 | 2.0 | 1.98 | 10.8 | 0.9 | 0.91 | 74.0 | 1.1 | 1.07 | 1.5 | 39.9 | 1.51
